# From the supplement of paper PMC7877785
# ± gives the uncertainty stated by the source.
# Assay: self-splicing fitness, log relative to wild type (ln ratio); higher = more splicing; Tetrahymena group I intron in knt gene, E. coli kanamycin selection, DiMSum; sequences stand for … in CUCUCU…GGAGGGAAAAGUUAUCAGGCAUGCACCUGGUAGCUAGUCUUUAAACCAAUAGAUUGCAUCGGUUUAAAAGGCAAGACCGUCAAAUUGCGGGAAAGGGGUCAACAGCCGUUCAGUACCAAGUCUCAGGGGAAACUUUGAGAUGGCCUUGCAAAGGGUAUGGUAAUAAGCUGACGGACAUGGUCCUAACCACGCAGCCAAGUCCUAAGUCAACAGAUCUUCUGUUGAUAUGGAUGCAGUUCACAGACUAAAUGUCGGUCGGGGAAGAUGUAUUCUUCUCAUAAGAUAUAGUCGGACCUCUCCUUAAUGGGAGCUAGCGGAUGAAGUGAUGCAACACUGGAGCCGCUGGGAACUAAUUUGUAUGCGAAAGUAUAUUGAUUAGUUUUGGAGUACUCGUGGUCG
# Method in brief: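 Library with all eight P1ex-region intron nucleotides randomised, intron inside the knt kanamycin-resistance gene on pET-22b(+), in E. coli BL21(DE3). Cells grew overnight at 37°C or 30°C on LB agar with or without 25 μg/mL kanamycin (plus 100 μg/mL carbenicillin, 50 μM IPTG, 0.2% rhamnose), in six replicate transformations. Pooled colonies were amplicon-sequenced on Illumina HiSeq 2500. DiMSum fitness is the error-weighted combination of wild-type-normalised replicate fold changes, kanamycin versus none.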
Sequence,self-splicing fitness (ln) (30 °C),self-splicing fitness (ln) (37 °C)
UCACAGCAAUAUUACGUGCU,-3.75 ± 0.19,-2.72 ± 0.15
UCACAGCAAUAUUACGUGUA,-2.2 ± 0.089,-1.09 ± 0.088
UCAGAGCAAUAUUACGACAA,,-2.96 ± 0.49
UCAGAGCAAUAUUACGACUC,-2.63 ± 0.22,-2.31 ± 0.26
UCAGAGCAAUAUUACGAUCA,-3.07 ± 0.35,-2.6 ± 0.31
UCAGAGCAAUAUUACGCAGG,,0.137 ± 0.42
UCAGAGCAAUAUUACGCCUG,-3.63 ± 0.3,
UCAGAGCAAUAUUACGCGUG,-2.31 ± 0.16,-2.05 ± 0.15
UCAGAGCAAUAUUACGCUUG,-2.27 ± 0.14,-0.868 ± 0.12
UCAGAGCAAUAUUACGGAGC,-3.49 ± 0.36,-1.44 ± 0.36
UCAGAGCAAUAUUACGGAGG,-3.4 ± 0.27,-2.33 ± 0.34
UCAGAGCAAUAUUACGGCAC,,-2.09 ± 0.33
UCAGAGCAAUAUUACGGGAG,-2.82 ± 0.21,-2.14 ± 0.34
UCAGAGCAAUAUUACGGGUA,-3.47 ± 0.27,-2.64 ± 0.31
UCAGAGCAAUAUUACGGUCU,-1.95 ± 0.2,-2.43 ± 0.39
UCAGAGCAAUAUUACGUGCA,-2.3 ± 0.16,-2.1 ± 0.18
UCAUAGCAAUAUUACGAAAA,-2.62 ± 0.48,
UCAUAGCAAUAUUACGAUAG,-3.22 ± 0.19,-1.79 ± 0.13
UCAUAGCAAUAUUACGAUGA,-2.65 ± 0.18,-0.815 ± 0.11
UCAUAGCAAUAUUACGCACG,-2.05 ± 0.11,-0.462 ± 0.13
UCAUAGCAAUAUUACGCACU,-3.19 ± 0.25,-3.18 ± 0.32
UCAUAGCAAUAUUACGCAUC,-3.59 ± 0.3,-3.1 ± 0.33
UCAUAGCAAUAUUACGCAUG,-4.52 ± 0.27,-2.77 ± 0.23
UCAUAGCAAUAUUACGCCUA,-2.62 ± 0.34,-1.85 ± 0.27
UCAUAGCAAUAUUACGCUGA,-2.32 ± 0.26,-1.85 ± 0.28
UCAUAGCAAUAUUACGGAGC,-2.3 ± 0.29,-3.14 ± 0.4

Sequence,self-splicing fitness (ln) (30 °C),self-splicing fitness (ln) (37 °C)
UCAUAGCAAUAUUACGGAUA,-1.51 ± 0.23,-2.59 ± 0.33
UCAUAGCAAUAUUACGGAUU,-3.52 ± 0.12,-3.06 ± 0.16
UCAUAGCAAUAUUACGGCAA,-2.25 ± 0.13,-1.14 ± 0.1
UCAUAGCAAUAUUACGGUGC,-2.88 ± 0.21,-3.08 ± 0.26
UCAUAGCAAUAUUACGUAAA,-2.76 ± 0.19,-1.99 ± 0.21
UCAUAGCAAUAUUACGUAUG,-3.28 ± 0.16,-2.09 ± 0.11
UCAUAGCAAUAUUACGUGAG,-1.1 ± 0.081,-0.39 ± 0.11
UCAUAGCAAUAUUACGUGUG,-1.8 ± 0.068,-1.84 ± 0.075
UCAUAGCAAUAUUACGUUAU,-3.05 ± 0.14,-2.21 ± 0.16
UCAUAGCAAUAUUACGUUCA,-1.73 ± 0.1,-1.57 ± 0.1
UCAUAGCAAUAUUACGUUCC,,-1.99 ± 0.29
UCAUAGCAAUAUUACGUUCG,-1.03 ± 0.098,-0.686 ± 0.1
UCAUAGCAAUAUUACGUUGG,-4.13 ± 0.46,-1.05 ± 0.24
UCCAAGCAAUAUUACGAAGC,-2.87 ± 0.25,-1.93 ± 0.21
UCCAAGCAAUAUUACGACAA,-2.14 ± 0.13,-1.47 ± 0.1
UCCAAGCAAUAUUACGACUA,-1.2 ± 0.12,0.12 ± 0.1
UCCAAGCAAUAUUACGAGCG,-1.96 ± 0.081,-0.978 ± 0.099
UCCAAGCAAUAUUACGCAAA,-2.18 ± 0.24,-0.843 ± 0.17
UCCAAGCAAUAUUACGCAGU,-2.03 ± 0.082,-0.856 ± 0.093
UCCAAGCAAUAUUACGCCUA,-0.968 ± 0.12,0.0562 ± 0.1
UCCAAGCAAUAUUACGCUGG,-4.72 ± 0.28,-1.81 ± 0.18
UCCAAGCAAUAUUACGCUUC,-3.36 ± 0.15,-4.24 ± 0.2
UCCAAGCAAUAUUACGGACU,-3.5 ± 0.21,-2.28 ± 0.18
UCCAAGCAAUAUUACGGCUC,-3.84 ± 0.37,
UCCAAGCAAUAUUACGGGGU,-2.76 ± 0.11,-1.96 ± 0.13
UCCAAGCAAUAUUACGGGUG,-1.63 ± 0.05,-0.583 ± 0.06

Sequence,self-splicing fitness (ln) (30 °C),self-splicing fitness (ln) (37 °C)
UCCAAGCAAUAUUACGGUGA,-0.389 ± 0.054,0.493 ± 0.077
UCCAAGCAAUAUUACGGUGU,-0.788 ± 0.047,0.18 ± 0.066
UCCAAGCAAUAUUACGGUUU,-3.75 ± 0.2,-2.48 ± 0.21
UCCAAGCAAUAUUACGUCUC,-3.53 ± 0.32,-2.02 ± 0.46
UCCAAGCAAUAUUACGUGUC,-3.42 ± 0.12,-2.94 ± 0.12
UCCAAGCAAUAUUACGUUCC,,-1.57 ± 0.31
UCCCAGCAAUAUUACGAAGG,-3.68 ± 0.23,-1.63 ± 0.23
UCCCAGCAAUAUUACGACAG,,-3.55 ± 0.37
UCCCAGCAAUAUUACGACCA,-1.65 ± 0.13,-1.06 ± 0.23
UCCCAGCAAUAUUACGAGAC,-3.6 ± 0.28,-0.749 ± 0.16
UCCCAGCAAUAUUACGAGAU,-3.57 ± 0.23,-2.66 ± 0.17
UCCCAGCAAUAUUACGAGUA,-1 ± 0.072,-0.558 ± 0.069
UCCCAGCAAUAUUACGAUCA,-1.48 ± 0.14,-0.722 ± 0.14
UCCCAGCAAUAUUACGAUUC,-4.67 ± 0.32,-1.97 ± 0.14
UCCCAGCAAUAUUACGCCGG,-2.84 ± 0.28,-1.21 ± 0.3
UCCCAGCAAUAUUACGCGCU,-4.15 ± 0.33,-2.84 ± 0.34
UCCCAGCAAUAUUACGCUAU,-4.27 ± 0.21,-1.31 ± 0.11
UCCCAGCAAUAUUACGGCAU,-2.77 ± 0.11,-1.01 ± 0.11
UCCCAGCAAUAUUACGGCUA,-1.31 ± 0.12,-1.19 ± 0.12
UCCCAGCAAUAUUACGUCCG,,-2.06 ± 0.47
UCCCAGCAAUAUUACGUCGG,-2.16 ± 0.13,-2.59 ± 0.23
UCCCAGCAAUAUUACGUGGG,-3.37 ± 0.1,-2.85 ± 0.16
UCCCAGCAAUAUUACGUGUA,0.0644 ± 0.061,-0.0313 ± 0.073
UCCGAGCAAUAUUACGACAC,-2.81 ± 0.21,-2.33 ± 0.23
UCCGAGCAAUAUUACGACCU,-3.35 ± 0.26,-2.74 ± 0.36
UCCGAGCAAUAUUACGAGAC,-3.1 ± 0.32,-2.81 ± 0.4

Sequence,self-splicing fitness (ln) (30 °C),self-splicing fitness (ln) (37 °C)
UCCGAGCAAUAUUACGCAAU,,-2.91 ± 0.34
UCCGAGCAAUAUUACGCACG,-3.01 ± 0.43,
UCCGAGCAAUAUUACGCCGC,,-2.15 ± 0.49
UCCGAGCAAUAUUACGCCGG,-2.87 ± 0.36,-2.15 ± 0.28
UCCGAGCAAUAUUACGCCUU,-2.35 ± 0.35,
UCCGAGCAAUAUUACGCGAG,,-1.2 ± 0.24
UCCGAGCAAUAUUACGGAGA,-1.83 ± 0.18,-1.7 ± 0.27
UCCGAGCAAUAUUACGGAGU,-3.73 ± 0.21,-2.74 ± 0.22
UCCGAGCAAUAUUACGGCGC,,-3.02 ± 0.37
UCCGAGCAAUAUUACGGCUG,-2.83 ± 0.19,-1.6 ± 0.29
UCCGAGCAAUAUUACGGGAC,-3.59 ± 0.18,-2.2 ± 0.15
UCCGAGCAAUAUUACGGGAU,-3.44 ± 0.33,
UCCGAGCAAUAUUACGUCAA,-2.89 ± 0.26,-2.27 ± 0.36
UCCGAGCAAUAUUACGUCGA,-1.21 ± 0.16,-0.238 ± 0.13
UCCGAGCAAUAUUACGUGGA,-2.47 ± 0.17,-2.52 ± 0.19
UCCGAGCAAUAUUACGUGUA,-2.55 ± 0.086,-1.9 ± 0.082
UCCGAGCAAUAUUACGUUUC,-3.39 ± 0.22,-2.11 ± 0.34
UCCUAGCAAUAUUACGAAGU,-1.47 ± 0.1,-0.726 ± 0.14
UCCUAGCAAUAUUACGACAA,,-2.04 ± 0.29
UCCUAGCAAUAUUACGACGC,-2.35 ± 0.17,-2.02 ± 0.2
UCCUAGCAAUAUUACGAGAU,-2.85 ± 0.16,-1.7 ± 0.19
UCCUAGCAAUAUUACGAUAA,-3.25 ± 0.29,-1.56 ± 0.17
UCCUAGCAAUAUUACGAUAC,-3.42 ± 0.35,-2.41 ± 0.44
